The values below come from patent publication US20260167699A1 (Chugai, published 2026).

B1: GpH7-A5/GpH7-B3 variant S298_15Y/GpL16-k0 (antibody, human IgG1, kappa)
heavy 1: not shown
heavy 2: not shown
light: DIVMTQSPLSLPVTPGEPASISCQASESLVHSNRNTYLHWYLQKPGQSPQLLIYKVSNRFSGVPDRFSGSGSGTDFTLKISRVEAEDVGVYYCSQNTHVPPTFGQGTKVEIERTVAAPSVFIFPPSDEQLKSGTASVVCLLNNFYPREAKVQWKVDNALQSGNSQESVTEQDSKDSTYSLSSTLTLSKADYEKHKVYACEVTHQGLSSPVTKSFNRGEC
notes: copies: 1 + 1 + 2
B2: GpH7-A5/GpH7-B3 variant S337_08L/GpL16-k0 (antibody, human IgG1, kappa)
heavy 1: not shown
heavy 2: not shown
light: B1 light
notes: copies: 1 + 1 + 2
B3: GpH7-A5/GpH7-B3 variant S324_09D/GpL16-k0 (antibody, human IgG1, kappa)
heavy 1: not shown
heavy 2: not shown
light: B1 light
notes: copies: 1 + 1 + 2
B4: GpH7-A5/GpH7-B3 variant S337_11K/GpL16-k0 (antibody, human IgG1, kappa)
heavy 1: not shown
heavy 2: not shown
light: B1 light
notes: copies: 1 + 1 + 2
B5: GpH7-A5/GpH7-B3 variant S337_04F/GpL16-k0 (antibody, human IgG1, kappa)
heavy 1: not shown
heavy 2: not shown
light: B1 light
notes: copies: 1 + 1 + 2
B6: GpH7-A5/GpH7-B3 variant S337_02A/GpL16-k0 (antibody, human IgG1, kappa)
heavy 1: not shown
heavy 2: not shown
light: B1 light
notes: copies: 1 + 1 + 2
B7: GpH7-A5/GpH7-B3 variant S324_11K/GpL16-k0 (antibody, human IgG1, kappa)
heavy 1: not shown
heavy 2: not shown
light: B1 light
notes: copies: 1 + 1 + 2
B8: GpH7-A5/GpH7-B3 variant S324_07I/GpL16-k0 (antibody, human IgG1, kappa)
heavy 1: not shown
heavy 2: not shown
light: B1 light
notes: copies: 1 + 1 + 2
B9: GpH7-A5/GpH7-B3 variant S298_16H/GpL16-k0 (antibody, human IgG1, kappa)
heavy 1: not shown
heavy 2: not shown
light: B1 light
notes: copies: 1 + 1 + 2
B10: GpH7-A5/GpH7-B3 variant S337_20W/GpL16-k0 (antibody, human IgG1, kappa)
heavy 1: not shown
heavy 2: not shown
light: B1 light
notes: copies: 1 + 1 + 2
B11: GpH7-A5/GpH7-B3 variant S324_16H/GpL16-k0 (antibody, human IgG1, kappa)
heavy 1: not shown
heavy 2: not shown
light: B1 light
notes: copies: 1 + 1 + 2
B12: GpH7-A5/GpH7-B3 variant S337_16H/GpL16-k0 (antibody, human IgG1, kappa)
heavy 1: not shown
heavy 2: not shown
light: B1 light
notes: copies: 1 + 1 + 2
B13: GpH7-A5/GpH7-B3 variant S337_09D/GpL16-k0 (antibody, human IgG1, kappa)
heavy 1: not shown
heavy 2: not shown
light: B1 light
notes: copies: 1 + 1 + 2
B14: GpH7-A5/GpH7-B3 variant S324_06M/GpL16-k0 (antibody, human IgG1, kappa)
heavy 1: not shown
heavy 2: not shown
light: B1 light
notes: copies: 1 + 1 + 2
B15: GpH7-A5/GpH7-B3 variant S337_15Y/GpL16-k0 (antibody, human IgG1, kappa)
heavy 1: not shown
heavy 2: not shown
light: B1 light
notes: copies: 1 + 1 + 2
B16: GpH7-A5/GpH7-B3 variant S298_19Q/GpL16-k0 (antibody, human IgG1, kappa)
heavy 1: not shown
heavy 2: not shown
light: B1 light
notes: copies: 1 + 1 + 2
B17: GpH7-A5/GpH7-B3 variant S337_19Q/GpL16-k0 (antibody, human IgG1, kappa)
heavy 1: not shown
heavy 2: not shown
light: B1 light
notes: copies: 1 + 1 + 2
B18: GpH7-A5/GpH7-B3 variant S324_03V/GpL16-k0 (antibody, human IgG1, kappa)
heavy 1: not shown
heavy 2: not shown
light: B1 light
notes: copies: 1 + 1 + 2
B19: GpH7-A5/GpH7-B3 variant S337_18N/GpL16-k0 (antibody, human IgG1, kappa)
heavy 1: not shown
heavy 2: not shown
light: B1 light
notes: copies: 1 + 1 + 2
B20: GpH7-A5/GpH7-B3 variant S337_03V/GpL16-k0 (antibody, human IgG1, kappa)
heavy 1: not shown
heavy 2: not shown
light: B1 light
notes: copies: 1 + 1 + 2
B21: GpH7-A5/GpH7-B3 variant S324_10E/GpL16-k0 (antibody, human IgG1, kappa)
heavy 1: not shown
heavy 2: not shown
light: B1 light
notes: copies: 1 + 1 + 2
B22: GpH7-A5/GpH7-B3 variant S324_01G/GpL16-k0 (antibody, human IgG1, kappa)
heavy 1: not shown
heavy 2: not shown
light: B1 light
notes: copies: 1 + 1 + 2
B23: GpH7-A5/GpH7-B3 variant S337_06M/GpL16-k0 (antibody, human IgG1, kappa)
heavy 1: not shown
heavy 2: not shown
light: B1 light
notes: copies: 1 + 1 + 2
B24: GpH7-A5/GpH7-B3 variant S337_10E/GpL16-k0 (antibody, human IgG1, kappa)
heavy 1: not shown
heavy 2: not shown
light: B1 light
notes: copies: 1 + 1 + 2
B25: GpH7-A5/GpH7-B3 variant S324_18N/GpL16-k0 (antibody, human IgG1, kappa)
heavy 1: not shown
heavy 2: not shown
light: B1 light
notes: copies: 1 + 1 + 2
B26: GpH7-A5/GpH7-B3 variant S324_20W/GpL16-k0 (antibody, human IgG1, kappa)
heavy 1: not shown
heavy 2: not shown
light: B1 light
notes: copies: 1 + 1 + 2
B27: GpH7-A5/GpH7-B3 variant S324_15Y/GpL16-k0 (antibody, human IgG1, kappa)
heavy 1: not shown
heavy 2: not shown
light: B1 light
notes: copies: 1 + 1 + 2
B28: GpH7-A5/GpH7-B3 variant T335_01G/GpL16-k0 (antibody, human IgG1, kappa)
heavy 1: not shown
heavy 2: not shown
light: B1 light
notes: copies: 1 + 1 + 2
B29: GpH7-A5/GpH7-B3 variant S324_12R/GpL16-k0 (antibody, human IgG1, kappa)
heavy 1: not shown
heavy 2: not shown
light: B1 light
notes: copies: 1 + 1 + 2
B30: GpH7-A5/GpH7-B3 variant S324_04F/GpL16-k0 (antibody, human IgG1, kappa)
heavy 1: not shown
heavy 2: not shown
light: B1 light
notes: copies: 1 + 1 + 2
B31: GpH7-A5/GpH7-B3 variant S337_01G/GpL16-k0 (antibody, human IgG1, kappa)
heavy 1: not shown
heavy 2: not shown
light: B1 light
notes: copies: 1 + 1 + 2
B32: GpH7-A5/GpH7-B3 variant S337_12R/GpL16-k0 (antibody, human IgG1, kappa)
heavy 1: not shown
heavy 2: not shown
light: B1 light
notes: copies: 1 + 1 + 2
B33: GpH7-A5/GpH7-B3 variant S324_05P/GpL16-k0 (antibody, human IgG1, kappa)
heavy 1: not shown
heavy 2: not shown
light: B1 light
notes: copies: 1 + 1 + 2
B34: GpH7-A5/GpH7-B3 variant S324_08L/GpL16-k0 (antibody, human IgG1, kappa)
heavy 1: not shown
heavy 2: not shown
light: B1 light
notes: copies: 1 + 1 + 2
B35: GpH7-A5/GpH7-B3 variant S324_14T/GpL16-k0 (antibody, human IgG1, kappa)
heavy 1: not shown
heavy 2: not shown
light: B1 light
notes: copies: 1 + 1 + 2
B36: GpH7-A5/GpH7-B3 variant S337_07I/GpL16-k0 (antibody, human IgG1, kappa)
heavy 1: not shown
heavy 2: not shown
light: B1 light
notes: copies: 1 + 1 + 2
B37: GpH7-A5/GpH7-B3 variant S324_02A/GpL16-k0 (antibody, human IgG1, kappa)
heavy 1: not shown
heavy 2: not shown
light: B1 light
notes: copies: 1 + 1 + 2
B38: GpH7-A5/GpH7-B3 variant S298_18N/GpL16-k0 (antibody, human IgG1, kappa)
heavy 1: not shown
heavy 2: not shown
light: B1 light
notes: copies: 1 + 1 + 2
B39: GpH7-A5/GpH7-B3 variant S337_14T/GpL16-k0 (antibody, human IgG1, kappa)
heavy 1: not shown
heavy 2: not shown
light: B1 light
notes: copies: 1 + 1 + 2
B40: GpH7-A5/GpH7-B3 variant S324_19Q/GpL16-k0 (antibody, human IgG1, kappa)
heavy 1: not shown
heavy 2: not shown
light: B1 light
notes: copies: 1 + 1 + 2

T1 sequence (P08637 other isoform, or with tags, fused parts or gaps): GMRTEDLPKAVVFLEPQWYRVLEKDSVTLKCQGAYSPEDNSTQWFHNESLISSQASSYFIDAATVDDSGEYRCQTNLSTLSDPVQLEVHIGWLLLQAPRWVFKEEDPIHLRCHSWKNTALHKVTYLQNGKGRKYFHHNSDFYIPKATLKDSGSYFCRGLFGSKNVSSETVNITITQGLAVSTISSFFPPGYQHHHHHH

The test concerns the target T1, FcγRIIIa (human, UniProt P08637 17-208).
T1 construct: extracellular domain; also called 3a; FcγRIIIa extracellular domain
Description: SPR (Biacore).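 Also: antibody variants captured on an SPR sensor chip, with FcγRIIIa passed over as analyte in HBS-EP+ buffer at 25 °C.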 In general terms: SPR reads the build-up and loss of mass on a sensor chip optically.
Regarding B1, the “He/Con 3a” value was 80.6 % of GpH7-A5/GpH7-B3/GpL16-k0. For B2, the “He/Con 3a” value is 90.2 % of GpH7-A5/GpH7-B3/GpL16-k0. As for B3, the “He/Con 3a” value is 110 % of GpH7-A5/GpH7-B3/GpL16-k0. The figure for B4 is 80.1 % of GpH7-A5/GpH7-B3/GpL16-k0; for B5 it is 94.4 % of GpH7-A5/GpH7-B3/GpL16-k0; for B6 it is 92.4 % of GpH7-A5/GpH7-B3/GpL16-k0. The figure for B7 is 90.2 % of GpH7-A5/GpH7-B3/GpL16-k0; for B8 it is 101 % of GpH7-A5/GpH7-B3/GpL16-k0; for B9 it is 71.9 % of GpH7-A5/GpH7-B3/GpL16-k0.

For B10, the “He/Con 3a” value was 93.8 % of GpH7-A5/GpH7-B3/GpL16-k0.

As for B11, the “He/Con 3a” value is 113 % of GpH7-A5/GpH7-B3/GpL16-k0. The figure for B12 is 100 % of GpH7-A5/GpH7-B3/GpL16-k0; for B13 it is 102 % of GpH7-A5/GpH7-B3/GpL16-k0; for B14 it is 124 % of GpH7-A5/GpH7-B3/GpL16-k0. The figure for B15 is 94.9 % of GpH7-A5/GpH7-B3/GpL16-k0; for B16 it is 70.6 % of GpH7-A5/GpH7-B3/GpL16-k0; for B17 it is 91.2 % of GpH7-A5/GpH7-B3/GpL16-k0. The figure for B18 is 101 % of GpH7-A5/GpH7-B3/GpL16-k0. For the molecule B19, the “He/Con 3a” value is 96.9 % of GpH7-A5/GpH7-B3/GpL16-k0. The figure for B20 is 87.1 % of GpH7-A5/GpH7-B3/GpL16-k0; for B21 it is 108 % of GpH7-A5/GpH7-B3/GpL16-k0; for B22 it is 114 % of GpH7-A5/GpH7-B3/GpL16-k0.

For the molecule B23, the “He/Con 3a” value is 89.7 % of GpH7-A5/GpH7-B3/GpL16-k0. The figure for B24 is 97.8 % of GpH7-A5/GpH7-B3/GpL16-k0; for B25 it is 103 % of GpH7-A5/GpH7-B3/GpL16-k0. The figure for B26 is 111 % of GpH7-A5/GpH7-B3/GpL16-k0.

In the case of B27, the “He/Con 3a” value was 110 % of GpH7-A5/GpH7-B3/GpL16-k0. The figure for B28 is 95.1 % of GpH7-A5/GpH7-B3/GpL16-k0; for B29 it is 98.1 % of GpH7-A5/GpH7-B3/GpL16-k0. The figure for B30 is 99.3 % of GpH7-A5/GpH7-B3/GpL16-k0; for B31 it is 95.2 % of GpH7-A5/GpH7-B3/GpL16-k0; for B32 it is 92.7 % of GpH7-A5/GpH7-B3/GpL16-k0.

For B33, the “He/Con 3a” value was 72.3 % of GpH7-A5/GpH7-B3/GpL16-k0. The figure for B34 is 95.5 % of GpH7-A5/GpH7-B3/GpL16-k0. The figure for B35 is 112 % of GpH7-A5/GpH7-B3/GpL16-k0; for B36 it is 88.3 % of GpH7-A5/GpH7-B3/GpL16-k0; for B37 it is 113 % of GpH7-A5/GpH7-B3/GpL16-k0. The figure for B38 is 51.4 % of GpH7-A5/GpH7-B3/GpL16-k0; for B39 it is 94 % of GpH7-A5/GpH7-B3/GpL16-k0. With B40, the “He/Con 3a” value was 96.2 % of GpH7-A5/GpH7-B3/GpL16-k0.
